Assay: soluble on expression in E. coli; label from the status in PepcDB or PDB records

Sequence | soluble on expression in E. coli
MNSQDAQNQVPPQKVDQEVDRLALMARAHQAIGELSDILVPLAAAFSSKGHSLYLVGGSVRDAFLGELGHDLDFTTSARPEETKAILDDYADVVWDTGIAFGTLSAEKHGQQIEITTFRSDLYDGNSRNPEVTFGDTLEGDLIRRDFKVNAMAVEIQADGELTFHDPVGGLEDLLTHTLDTPATPEQSFNDDPLRMLRAARFVSQLNFTLAPRVITAMTEMAQQITRITVERMQVELDKMILGKNPEAGIDLMVESGIAQIIYPEIPAMQMTQDEHMQHKDVYAHSLQVMRQAIDQEEDGPDLVLRWAALLHDCGKPDTRDFNEEGRVSFHQHEVVGAKLVRRRMRKLKYSKQMVGDVGQLVFLHMRFHGFSEGQWTDSAVRRYAADAGELLPRLHKLVRADCTTRNKRKAARLQATYDHLEERIAEIAAKEDLARVRPDLDGNEIMEILNIQAGPEVGKAWAFLKELRLERGPLDREVAIAELKSWWEGENNE | not soluble
GSMASAAVANYEEEIVRPVADFSPSLWGDQFLSFSIKNQVAEKYAKEIEALKEQTRNMLLATGMKLADTLNLIDTIERLGISYHFEKEIDDILDQIYNQNSNCNDLCTSALQFRLLRQHGFNISPEIFSKFQDENGKFKESLASDVLGLLNLYEASHVRTHADDILEDALAFSTIHLESAAPHLKSPLREQVTHALEQCLHKGVPRVETRFFISSIYDKEQSKNNVLLRFAKLDFNLLQMLHKQELAQVSRWWKDLDFVTTLPYARDRVVECYFWTLGVYFEPQYSQARVMLVKTISMISIVDDTFDAYGTVKELEAYTDAIQRWDINEIDRLPDYMKISYKAILDLYKDYEKELSSAGRSHIVCHAIERMKEIVRNYNVESTWFIEGYTPPVSEYLSNALATTTYYLLATTSYLGMKSATEQDFEWLSKNPKILEASVIICRVIDDTATYEVEKSRGQIATGIECCMRDYGISTKEAMAKFQNMAETAWKDINEGLLRPTPVSTEFLTPILNLARIIEVTYIHNLDGYTHPEKVLKPHIINLLVDSIKI | soluble
MGSDKIHHHHHHWQVTGSKTTQDGVEAARMCGIDSYPLRLEPQLVCDTEDLDALMNVDALVITLPARRTGAGEGFYLQAVQEIVDTALAYHIPRIVFTSSTSVYGNVNGTVKENSPRLPQTASGQVLKELEDWLHNLPGTSVDILRLAGLVGPSRHPGRFFAGKSAPDGQHVVNLVHLQDVVAAIELLLQAPKGGHIYNLCAPRHPARGLFYPQMARELGLPPPVFSDSPDGGQGKIVDGNRICNELGFEYQYPDPLVMPME | not soluble
MVDPQLDGPQLAALAAVVELGSFDAAAERLHVTPSAVSQRIKSLEQQVGQVLVVREKPCRATTAGIPLLRLAAQTALLESEALAEMGGNASLKRTRITIAVNADSMATWFSAVFDGLGDVLLDVRIEDQDHSARLLREGVAMGAVTTERNPVPGCRVHPLGEMRYLPVASRPFVQRHLSDGFTAAAAAKAPSLAWNRDDGLQDMLVRKAFRRAITRPTHFVPTTEGFTAAARAGLGWGMFPEKLAASPLADGSFVRVCDIHLDVPLYWQCWKLDSPIIARITDTVRAAASGLYRGQQRRRRPG | soluble
MIDHQHLRLFQFCDSQFPTGAFSHSFGLETYIQRETVHDTETFIKWLHLFINEQLTYSDGIAMRIVYHALINNDKDKILDINQKLFVQNLPKETRIGAKQMGTRMVKLALDLYDSEWIQWYYNQMKNNKIKLHPAVCFTMLGHFLGVDVESIIDYYLYQNISSLTQNAVRAIPLGQTAGQQVVTEMIAHIEKTRNHILELDEIDFGMTAPGLELNQMEHENVHVRIFISLEHHHHHH | not soluble
SLDRGEQGLLKTEPVAEEGEDAVTMLSAPEALTEEEQEELRRELTKVEEEIQTLSQVLAAKEKHLAELKRKLGISSLQEFKQNIAKGWQDVTATNAYKKTSETLSQAGQKASAAFSSVGSVITKKLEDVKNSPTFKSFEEKVENLKSKVGGAKPAGGDFGEVLNSTANATSTMTTEPPPEQMTES | soluble
QFWDLNAKLVDIPTKMRVERWAFNFSELIRDPKGRQSFQHFLRKEFSGENLGFWEACEDLKYGDQSKVKEKAEEIYKLFLAPGARRWINIDGKTMDITVKGLKHPHRYVLDAAQTHIYMLMKKDSYARYLKSPIYKEMLAKAIEPQG | soluble
MGSDKIHHHHHHMSDKTKELRNKYNSKNRHKNFGPCLRKVHIEGFRGVQSADLELEFPITAISGLNGSGKSTVGQLAICAYKKPDKSMTYKRLYIKDFFPVSPADPKPISDSAKVVYFYETDDYQKPKEVTVSRVKSSWSGYKRQPERYCYYIGFTVYLPKVERRDLSVYAGVNLQFTEKRDIEAEVVKKMARIIGHKYENVAFQGVSHNGKESEVGIAYRLGYSYSENNMGFGEGRILYTIDKLESSPEQSLFILEEPETSLHESAQHEFAKYLLDVCNRRHHQIILSTHSSVIVNALPPESRKLMIRDEGGVDIRNKISSGQLRSILSSGHVRSLDICVEDNFAKVLLIEVIRMKRKALLKIVEIHAIGSTDAVREAVRILKKTGKKAIAVRDADIGPSEKEGLYSFPGNKPPEKEVFEHSAVKAFFKSKYDLDVEWFFQYKNVSDHHYYAKCIASEIASDESVIQTSAIEEYLKHVNNNFDYLIDAIEKELDNHN | not soluble
MPSSRRVRSRCCAFGITKRFACIRPACQRARMDAQMTNFETRLRENAAKTEALLGHLLSGEARADEITRPQNLLEAMRHGVLNGGKRLRPFLVIESVALLGGDAEAGLHVGAALECLHCYSLVHDDLPAMDDDDLRRGQPTVHRKFDEATAILAGDSLLTLAFDIIASDDNPLAAERKAALVISLARAAGIGGMAGGQALDLAAEKKAPDEDGIITLQAMKTGALLRFACEAGAIIAGSNQAERQRLRLFGEKIGLSFQLADDLLDLTADAATMGKATGKDAARGKGTLVALRGEAWAREKLQE | soluble
MSDWNPSLYLHFAAERSRPAVELLARVPLENVDYVADLGCGPGNSTALLHQRWPAARITGIDSSPAMIAEARSALPDCQFVEADIRNWQPEQALDLIFANASLQWLPDHYELFPHLVSLLNPQGVLAVQMPDNWLEPTHVLMREVAWEQNYPDRGRESLAGVHAYYDILSEAGCEVDIWRTTYYHQMPSHQAIIDWVTATGLRPWLQDLTESEQQLFLTRYHQMLKEQYPLQENGQILLAFPRLFIVARRTE | soluble
MYNGILPVYKERGLTSHDVVFKLRKILKTKKIGHTGTLDPEVAGVLPVCIGNATRVSDYVMDMGKAYEATVSIGRSTTTEDQTGDTLETKGVHSADFNKDDIDRLLENFKGVIEQIPPMYSSVKVNGKKLYEYARNNETVERPKRKVNIKDIGRISELDFKENECHFKIRVICGKGTYIRTLATDIGVKLGFPAHMSKLTRIESGGFVLKDSLTLEQIKELHEQDSLQNKLFPLEYGLKGLPSIKIKDSHIKKRILNGQKFNKNEFDNKIKDQIVFIDDDSEKVLAIYMVHPTKESEIKPKKVFN | soluble
GQKESQTGKGMKIVTSFYPIYAMVKEVSGDLNDVRMIQSSSGIHSFEPSANDIAAIYDADVFVYHSHTLESWAGSLDPNLKKSKVKVLEASEGMTLERVPGLEDVEAGDGVDEKTLYDPHTWLDPEKAGEEAQIIADKLSEVDSEHKETYQKNAQAFIKKAQELTKKFQPKFEKATQKTFVTQHTAFSYLAKRFGLNQLGIAGISPEQEPSPRQLTEIQEFVKTYKVKTIFTESNASSKVAETLVKSTGVGLKTLNPLESDPQNDKTYLENLEENMSILAEELK | soluble
MTNEAIQNREPFLQNLREKLDVEKQPVSAHPFEPVNHLPEEQLADKTPAELLTIVKERVETIHTNLVETTQENLLTTIQQIVAEFGGDNLLLPTDARFEAYGLADLAKSLEAVSVKQWQPGSEQREANIQTAAQANIAIAFAEFLLAESGTIVVESNAGQGRALHFLPKHYISIIPFSKLVPRSTQPAAFYTEKIEKGEKIGSAIHFISGPSNSGDIEMQLVVGLHGPLEVCYVVVMDR | not soluble
MVMSQKTLFTKSALAVAVAIISTQAWSAGFQLNEFSSSGLGRAYSGEGAIADDAGNVSRNPALITMFDRPTFSAGAVYIDPDVNISGTSPSRRTLDADNIAPTAWVPNVHFVAPINDQFGWGASITSNYGLATEFNDTYAGGSVGGTTDLETMNLNLSGAYRLNEAWSFGLGFDAVYARAKIERFAGDLGQLVAAQNPALAPVAGQIPSDTKIAHLNGNQWGFGWNAGILYELDKNNRYALTYRSEVKIDFKGNYSSDLPIAINRFNLPIPTATGGATQSGYLTLNLPEMWEVSGYNRVAPQWAIHYSLAYTSWSQFQELKAKSTAGDTLFEKHEGFKDAYRIALGTTYYYDDNWTFRTGIAFDDSPVPAQNRSISIPDQDRFWLSAGTTYAFNKDASVDVGVSYMHGQSVKINEGPYQFESEGKAWLFGTNFNYAF | not soluble
MASPSASADDVKLTADGKICLDDPAEFLKRKPKKSILKMKQDSSLEGKDGRAHFDEMNILATYHPTDKDYGSMKIDEPKTPYHHSDGESECDEGVLGVPTTRPRRVSLGNAIDPEKVAEGLAHPESGKSLSSAEDSEDEADLTEEQRAHRRDFEKKRRAHYNEGAALKHHPELEDDEEEATAAAAGAGGNMEH | not soluble
MAKQELGTKRVDPETGKKFYDLNRDPIVSPYTGISYPRSYFEVAAAEANSEEEVDTEELDTALEKSAFMLLEDDGDDPKDDDLPDLEDSDVDLGDDDDTFLSHDEDDEDDDVTDILGGGVSKDDDS | not soluble
MGSDKIHHHHHHMKTLLGIIAGKAAQSILTKLGRGSTYPGRLALACDKDILKDLSKDYDIVVVTGTNGKTLTTALTVGILKEAFGEIITNPSGANMITGITSTFLAAKKGKSERQIAVLEIDEASLPRITTYLKPSLFVYTNIFRDQMDRYGEIYTTYQMIVDGARNAPKATILANGDSPIFSSKDIVNPVQYYGFDTAKHAPQLAHYNTEGILCPKCEHILQYRLNTYANLGDFVCLNCQFQRPTLDYQLTELTAITHQSSEFVIDGQNYKINVGGLYNIYNALAAVSVAEFFGVSPEKIKAGFNKSKAVFGRQETFTVGDKSCTLILIKNPVGASQALEMIQLADYPFSLSVLLNANYADGIDTSWIWDANFELITQMPITEINAGGVRHSEIARRLRVTGFDDTKIKQAEKLEQIIETIEKQEAKHAYILATYTAMLEFRSLLADRHVVEKEMI | not soluble
MGSDKIHHHHHHMLKVRHLEIFRAVVKAGSVSAAARLLYVSQPAVTKTLRMLEEEIGLTLFLRVKGRLVCTPEAESILPEIERLFGSVQSIAETAREIRQGQRGSIRVSTVSMLATTIVARAVGEFRKTHPYVEFDVRALPTRHVVEYVNNNQADFGILDVAAPSGTLEVEEFCSADLRCVMRAAHPLASRKTITPRLLDNEALATFGEDTLTGWRLREAFRAQGRPFTSVFVSNSTPVLCALVREADAVALVDPFALMSRSFPDLVSRRFSPSVPVQPRFLFAPGRPRSVIVDQFVSQLRKTAGEMAMG | not soluble
MAHHHHHHMLRMKLVTYFEGFFFMATANDLPAAFRGSNCLQVQVNSKSGSKRVIRLVFIRHGQSVWNSLFNSFDATWPVRAVKAMVNEAVYFFTNPFDSVIVDSPLSEKGRSEAQELARFVRSAKGQVCFDASCSLIVCSNLRRAMETALVGMQPRIVSTGERIVVDSSLQEGSRNIDAQSLSTEPGKIVPCKMGELATPQLLGTAFDPHLNGGNRTAKRNVYDRMDEFVQHLFGGVKSNPYVPASGAESGNSALKEVIVVGHSGYFRCFFKRFLPSSSRHVAKTKKLKNCAVVSFDLVRNESTGEVYIEESTVSVLYKGF | not soluble

Reference: the DeepSol protein solubility set
